From PMC11840924, “Identifying Allosteric Hotspots in Mycobacterium tuberculosis cAMP Receptor Protein through Structural Homology” (Biochemistry, 2025)
Where a chain is given by its changes, count along the chain named. In names and notes the source's numbering stands.

Key:
[1] = target: T1, cAMP receptor protein from Mycobacterium tuberculosis (CRPMTB), wildtype (Mycobacterium tuberculosis), P9WMH3; experiment: fluorescence polarisation; fluorescence anisotropy, stoichiometric titration; CRPMTB titrated into 200 nM fluorescein-labelled 32-bp serC promoter DNA; 75 mM KCl, 50 mM HEPES, 1 mM EDTA, pH 7.6; 0 mM cAMP; conditions: remark: other sources report otherwise
T1 chain: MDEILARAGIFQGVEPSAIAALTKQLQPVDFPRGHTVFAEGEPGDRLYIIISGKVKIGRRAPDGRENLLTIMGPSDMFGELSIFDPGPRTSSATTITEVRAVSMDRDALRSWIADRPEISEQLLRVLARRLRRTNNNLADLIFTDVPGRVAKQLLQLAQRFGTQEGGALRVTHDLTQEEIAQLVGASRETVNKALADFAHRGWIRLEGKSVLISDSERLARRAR

[2] = target: T1, cAMP receptor protein from …; experiment: fluorescence polarisation; fluorescence anisotropy; CRPMTB titrated into 3 nM fluorescein-labelled 32-bp serC promoter DNA (full site); 75 mM KCl, 50 mM HEPES, 1 mM EDTA, pH 7.6; 0 mM cAMP; second transition ([CRP] > 100 nM) read as free CRPMTB joining the specific CRPMTB-DNA complex (high-order oligomers on DNA); apparent; conditions: remark: other sources report otherwise
[3] = target: T1, cAMP receptor protein from …; experiment: fluorescence polarisation; fluorescence anisotropy; CRPMTB titrated into 3 nM fluorescein-labelled 32-bp serC promoter DNA (full site); 75 mM KCl, 50 mM HEPES, 1 mM EDTA, pH 7.6; 1 mM cAMP; second transition read as high-order oligomers on DNA; apparent; conditions: remark: other sources report otherwise
[4] = target: T1, cAMP receptor protein from …; experiment: SEC; conditions: remark: other sources report otherwise
SEC = target: the molecule itself; experiment: SEC
CRPMTB A61H [5] = target: T2, CRPMTB A61H (Mycobacterium tuberculosis, UniProt P9WMH3 1-224, A61H); experiment: fluorescence anisotropy; 1 mM cAMP; 75 mM KCl, 50 mM HEPES, 1 mM EDTA, pH 7.6; […]; temperature not stated; conditions: protein: recombinant; tags: His-tag (pET-3a); chain copies: 2; label: fluorescein; blunt
T2 sequence: T1 chain with A61H

CRPMTB D63H [6] = target: T3, CRPMTB D63H (Mycobacterium tuberculosis, UniProt P9WMH3 1-224, D63H); experiment: as above; conditions: protein: recombinant; tags: His-tag (pET-3a); chain copies: 2; label: fluorescein; blunt
T3 sequence: T1 chain with D63H

CRPMTB T70F [7] = target: T4, CRPMTB T70F (Mycobacterium tuberculosis, UniProt P9WMH3 1-224, T70F); experiment: as above; conditions: protein: recombinant; tags: His-tag (pET-3a); chain copies: 2; label: fluorescein; blunt
T4 sequence: T1 chain with T70F

CRPMTB A61I [8] = target: T5, CRPMTB A61I (Mycobacterium tuberculosis, UniProt P9WMH3 1-224, A61I); experiment: as above; conditions: protein: recombinant; tags: His-tag (pET-3a); chain copies: 2; label: fluorescein; blunt
T5 sequence: T1 chain with A61I

CRPMTB A61H [9] = target: T2, CRPMTB A61H; experiment: fluorescence anisotropy; no cAMP; 75 mM KCl, 50 mM HEPES, 1 mM EDTA, pH 7.6; […]; temperature not stated; conditions: protein: recombinant; tags: His-tag (pET-3a); chain copies: 2; label: fluorescein; blunt
CRPMTB D63H [10] = target: T3, CRPMTB D63H; experiment: as above; conditions: protein: recombinant; tags: His-tag (pET-3a); chain copies: 2; label: fluorescein; blunt
CRPMTB T70F [11] = target: T4, CRPMTB T70F; experiment: as above; conditions: protein: recombinant; tags: His-tag (pET-3a); chain copies: 2; label: fluorescein; blunt
CRPMTB A61I [12] = target: T5, CRPMTB A61I; experiment: as above; conditions: protein: recombinant; tags: His-tag (pET-3a); chain copies: 2; label: fluorescein; blunt

B1: cAMP receptor protein from Mycobacterium tuberculosis (CRPMTB), wildtype, P9WMH3 (natural protein)
chain: T1 chain
stoichiometry N [1]: > 4 | apparent K (1/[CRP]) at the boundary of oligomer formation on DNA [2]: 1.5e+07 M⁻¹ | apparent K (1/[CRP]) at the boundary of oligomer formation on DNA [3]: 6e+06 M⁻¹ | stoichiometry N [4]: 2

B2: CRPMTB A61I (natural protein)
chain: T1 chain with A61I
stoichiometry N (SEC): 2

B3: CRPMTB D63H (natural protein)
chain: T1 chain with D63H
stoichiometry N (SEC): 2

B4: CRPMTB T70F (natural protein)
chain: T1 chain with T70F
stoichiometry N (SEC): 2

B5: CRPMTB A61H (natural protein)
chain: T1 chain with A61H
stoichiometry N (SEC): 2

B6: serC32 full-site promoter (dsDNA)
DNA 1: GCGCGTAGTGTGAACAAGCTCACATGCAAGCC
DNA 2: GGCTTGCATGTGAGCTTGTTCACACTACGCGC
Ka (CRPMTB A61H [5]): 2.95 ± 0.05 10^8 M-1 | Ka (CRPMTB D63H [6]): 4.66 ± 0.06 10^8 M-1 | Ka (CRPMTB T70F [7]): 2.75 ± 0.02 10^8 M-1 | Ka (CRPMTB A61I [8]): 3.57 ± 0.03 10^8 M-1 | Ka (CRPMTB A61H [9]): 4.03 ± 0.08 10^8 M-1 | Ka (CRPMTB D63H [10]): 4.53 ± 0.04 10^8 M-1 | Ka (CRPMTB T70F [11]): 4.42 ± 0.04 10^8 M-1 | Ka (CRPMTB A61I [12]): 2.71 ± 0.02 10^8 M-1
